Data from patent US11529426B2, “Methods and compositions for targeting tissue lesions” (priority 2017, dated 2022).

B1: MabCII: monoclonal antibody to type II collagen from E4-D4 (E4) hybridoma clone; mouse IgG2a heavy chain, kappa light chain; VH/VL SEQ ID NO: 6/14 (antibody, listed as Mus musculus, V domains shown)
VH: EVQLVESGGGLVKPGGSLKVSCEASGFTFSDYGMHWVRQAPEKGLEWVAYISSVSSTIYYADTVEGRFTISRDNVRNTLFLQMTSLRSEDTAMYYCAREGWLPLFAFWGQGTLVTVSA
VL: DIVLTQSHKFMSTSVGDRVSITCKASQDVSITVAWYQQKPGQSPKLLIYSASYRNPGVPDRFTGSGSGTDFNFTISTVQAEDLAVYYCQQYYIIPWTFGGGTKLEFKR

What was measured:
[1] = system: mechanically loaded mouse knee; test: Mechanically loaded mouse knee, D1 2G nanosomes: cartilage damage by MabCII680 fluorescence; format: in vivo, C57BL/6 mice; settings: intraarticular 50 μL, 500 μM TPCA-1, 2 injections, two-week loading; vs PBS
Text: Targeted nanosomes were generated from lipids and conjugated to purified D1 2G monoclonal antibody from a hybridoma isolated from mice immunized with type II collagen (MabCII). Briefly, the lipid film which contained 5.2 μmol dioleoyl-sn-glycero-3-phosphocholine (DOPC), 4.5 μmol cholesterol, 0.3 μmol 1,2-distearoyl-sn-glycero-3-phosphoethanolamine-N-[maleimide (polyethylene glycol) 2000] (DSPE-PEG-maleimide) and TPCA-1 was rehydrated with phosphate buffered saline (PBS) and sonicated. The rehydrated lipids were repeatedly extruded through a 200 nm porous membrane to generate 200 nm 1-3 walled nanosomes. The MabCII were thiolated using Traut's reagent, then mixed with the nanosomes for conjugation. After conjugation, the reaction mixture was chromatographed on a Sepharose CL-4B column to separate the free antibodies from the coupled liposomes. […]
At the completion of the two-week loading period, mice were injected retro-orbitally with 100 μL composite mixture of 50 μL of monoclonal antibody to type II collagen (MabCII680) labeled with XenoFluor 680 (XF680; Caliper) fluorescent dye and 50 μL of MMPSense-750 (Perkin-Elmer, Waltham, Mass.) a substrate that fluoresces when cleaved by MMPs. After 24 hours, the mice were anesthetized and the knee joints were optically scanned for each type of fluorescence using a Lumina XR (Perkin Elmer, Waltham, Mass.).

[2] = system: MMPs; test: Mechanically loaded mouse knee (PTOA), E4 nanosomes: MMP activity by MMPSense-750 fluorescence; format: in vivo, C57BL/6 mice; settings: intravenous, 100 uM TPCA-1, 3 injections, two-week loading; vs control nanosomes
Text: (§1) Targeted nanosomes were generated from lipids and conjugated to purified E4-D4 (E4) monoclonal antibody to type II collagen that was developed from a hybridoma isolated from mice immunized with type II collagen. Briefly, the lipid film which contained dioleoyl-sn-glycero-3-phosphocholine (DOPC), cholesterol, 1,2-distearoyl-sn-glycero-3-phosphoethanolamine-N-[maleimide (polyethylene glycol) 2000] (DSPE-PEG-maleimide) and TPCA-1 was rehydrated with phosphate buffered saline (PBS) and sonicated. The rehydrated lipids were repeatedly extruded through a 200 nm porous membrane to generate 200 nm 1-3 walled nanosomes. The E4 MabCII was thiolated using Traut's reagent, then mixed with the nanosomes for conjugation. […] The E4 MabCII was also conjugated to the near infrared dye XenoLight CF 680 (PerkinElmer) used for the final quantitative imaging of arthritic damage. […]
(§2) At the completion of the two-week loading period, mice were injected retro-orbitally with 100 μL composite mixture of 50 μL of 1 mg/ml E4 monoclonal antibody to type II collagen MabCII680 labeled with Xenolight CF 680 fluorescent dye and 50 μL of MMPSense-750 (Perkin-Elmer, Waltham, Mass.), a substrate that fluoresces when cleaved by MMPs. After 24 hours, the mice were anesthetized and the knee joints were optically scanned for each type of fluorescence using a Lumina XR Imaging System (Perkin Elmer, Waltham, Mass.).

[3] = system: mechanically loaded mouse knee; test: Mechanically loaded mouse knee (PTOA), E4 nanosomes: cartilage damage by MabCII680 fluorescence; format: in vivo, C57BL/6 mice; settings: intravenous, 100 uM TPCA-1, 3 injections, two-week loading; vs empty nanosomes (Control)
Text: as §1, §2

[4] = system: collagen-induced arthritis; settings: mice, reference [20]; cited from earlier work
[5] = system: exposed type II collagen in articular cartilage explants; test: Binding of fluorescent avidin/biotinylated reparative cells to cartilage explants pre-incubated with biotinylated antibody (IVIS imaging); set-up: species or system domestic pigs; settings: for binding of fluorescent avidin/biotinylated ADSC cells to cartilage explant: biotinylated antibody 1 hr
Method: Type II collagen monoclonal antibody (MabCII) at a concentration of 1 mg/mL was buffer exchanged with phosphate buffered saline (PBS). The linking reagent NHS-PEG4-Biotin (Thermo Scientific) was then brought up in distilled water to a recommended 20-fold molar excess of Biotin per mg/mL of MabCII. The biotinylated MabCII sample was then added to a Zeba spin desalting column (Thermo Scientific) column and centrifuged at 1000×g for 2 minutes in order to remove excess biotin reagent. The collected flow-through solution was the purified sample. As a control, irrelevant monoclonal mouse IgG antibody of the same subclass (Isotope Control from R&D Systems, Inc.) was similarly prepared.
The reparative cells (isolated chondrocytes or chondrogenically differentiated ADSCs) previously labeled with a fluorescent dye (Vivotrack 680: PerkinElmer, MA), were re-suspended at 1×10^6 cells/ml in fresh serum-free medium with 250 mM sucrose, 1 mM HEPES, and 1 mM CaCl2. The PE-PEG-Biotin stock solution (1 mM) was then added to the various tubes at 25 μM final concentration and incubated for 60 minutes to allow PE-PEG-Biotin integration into the cell membranes. Neutravidin was dissolved in PBS and added to the PE-PEG-Biotin labeled cells at a final concentration of […] of Neutravidin. The tubes were then allowed to incubate on a rocker platform for 30 minutes at 37° C. for binding. After incubation, the cells were centrifuged, supernatants were discarded, and serum-free medium was added and the cells vortexed ready to incubate with the cartilage explants.
Cartilage explants were harvested from the articular cartilage of femoral condyles of domestic pigs ranging from 25 to 30 kilograms and were punched from cartilage explants taken from the surface of articular cartilage with a 6 mm dermal punch to provide equivalent surface areas. The cartilage explants were divided into two groups for incubation with biotinylated Mab; one group that would be mechanically damaged and one group with no damage (normal). […]

[6] = system: type II collagen (Col2a1) expression; test: Type II collagen gene expression (PCR) of reparative cells bound to devitalized scratched cartilage explants; format: cell-based, pig; settings: one week
Method: For evaluation of gene expression of the reparative cells attaching to cartilage explants with the two step MabCII, biotin-avidin system described above, cartilage explants were devitalized by freeze thawing and washed three times before incubation with biotinylated MabCII and avidin/biotinylated chondrocytes or avidin/biotinylated chondrogenically differentiated ADSC cells as described above. After washing to remove unbound cells, the cells bound to the explants were incubated for one week in complete F12K culture medium with 10% FCS. The explants were then washed and the RNA extracted with Trizol for quantitative polymerase chain reaction (PCR) for the cartilage specific-type II collagen expression. Quantitative gene expression was analyzed by PCR using primers specific for type II collagen (Col-II) and the housekeeping gene glyceraldehyde-3-phosphate dehydrogenase (GAPDH). Gene expression was calculated as 2^−ΔΔCT after normalization to GAPDH expression. For some experiments gene expression from avidin/biotinylated cells that were incubated in standard tissue culture wells or incubated with cartilage with no antibody for the same period of time were set as 1+/− standard error of the mean (SEM) and compared to same type of cells binding to the cartilage explants.

| Molecule | cartilage damage: binding of MabCII680, intensity in region of interest [1] | MMP activity: fluorescence of MMPSense-750 [2] | cartilage damage: binding of MabCII680, intensity in region of interest [3] | proinflammatory mediators in collagen-induced arthritis [4] | binding of isolated articular chondrocytes to cartilage explant ([5]; avidin/biotinylated chondrocytes, data not shown) | binding of fluorescent avidin/biotinylated ADSC cells to cartilage explant ([5]; damaged (scratched) cartilage) | binding of fluorescent avidin/biotinylated ADSC cells to cartilage explant ([5]; normal (unscratched) articular cartilage) | expression of CII relative to cells maintained without cartilage in standard tissue culture ([6]; articular chondrocytes on explants) | type II collagen (Col2a1) gene expression of targeted cells ([6]; avidin/biotinylated ADSC, FIG. 9B) | type II collagen (Col2a1) gene expression of targeted cells ([6]; avidin/biotinylated chondrocytes, FIG. 9A) |
| --- | --- | --- | --- | --- | --- | --- | --- | --- | --- | --- |
| NC(=O)Nc1sc(-c2ccc(F)cc2)cc1C(N)=O [TPCA-1, 2-[(aminocarbonyl)amino]-5-(4-fluorophenyl)-3-thiophenecarboxamide] | no improvement | did not show significant reduction | did not show significant improvement | reduce proinflammatory mediators such as TNF-α |  |  |  |  |  |  |
| B1 |  |  |  |  | same specificity of binding | significant amount of reparative cells binding | not detectable | equivalent | continue to express type II collagen | continue to express type II collagen |
